Measurements: the NTF2 design screens of Basanta et al. (2020)

Assay: protease stability score; higher = more stable; yeast display proteolysis, trypsin and chymotrypsin;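 also: relative to predicted unfolded state with 0 unfolded-like and 1 meaning tenfold more protease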

Row | Sequence | protease stability score
1 | SEDERDAHRAWEIWLKTLETGNEEDMLKLMDPNVRIIIGDKHHHGREELEKILRRYDHIDMEHVHLRHLEVQGEKVIYIGEIHMVFHFNGVTRRLHTEAILILTKVNGRWSQKSLEIK | 1.32
2 | SEDERDAHRILDEEFEAIWTGDEHFLRELLDPNVQMDFNGVKLHGRHAFREIFRRFDWVDRIRLEEIRIFNGKVEIHIREDGFIDGRRTNTTSVFFMEKVDGRWKVRKMRIG | 1.66
3 | SEDERDAKFATDLVLHLLRTGDEEKLLQLLDPNVRVEQGNKDWHGREDWHDFMEIMGIDHMTIHHVELRVVNGRVESHVDIRLLVNGRDDDVQLVLFMKKVDGRWRVTSLRFIYR | 1.74
4 | SEDERDAKMFIDLLNEAMHTGDEQIIKDLVDPHVKIFVGDKIYIGWERYRHMLEEIRIHRWDSEIKRYRVFDGRLEVEGVLHFDVEVNGKRREISTHVELHFDKFDGRWIVREISVH | 1.76
5 | SEDERDAKRAEEEFKRHVETGDEKMLREMMDPHVRFEIGDKEFIGWNFAEKLHLDLIERIDHEELILRHINVVNGKVDSDVELRVHVDGVTIIVRTRIISKKIDGRWLIRSIIIH | 0.695
6 | SEDERDAQHFIELWDEAMRTGDFELLHYLMDPHTRILVNGRNLHGWEIYHKLLHEIRVKDSRSEDSRVIGDKVRVDQRVHGIVNGVETDLKTHLITEKFNGRWHYRSVEIK | -0.189
7 | SEDERDARELMEIEIRAKRTGDEDTLERLMDPHMRTDINGKELVGREVLEWERKRVDHIHDFRIHHVTSVNGRLDIDASLRLTVDGVEETMRFRILTRKVNGRWIVEFLIVK | 0.985
8 | SEDERDARHYLKEFEHAIETGDEHRLDELLDPNVKIDIDGVEHHGREWFRTLEHHIRVHSRVELKHIEVYGNFIVMDGHLHREIRINGRRIETHSRTIIIMRKVNGRWLVSELRFR | 1.52
9 | SEDERDARTMTEEITHIIETGDEHRFQELADPNMRLEQGEYHRHGREQVVEFLREVLRELRLKHIHIKDIHVIDGRVIIDVWVHSQYGDKEFTVKVIWIVHKIDGRWIFHSVRIE | 1.35
10 | SEDERDIEHAVKVEIKSYETGDEKSWREYVDPHVRIEQGDFLFHGWEDAVKLYAKIKNLTLEVKDMKVYNGRVHSEGVFKFNGQSMETRLIIFKIDGQWIVHSIHIK | 1.82
11 | SEDERDIREAFKRWVHNVETGDFESLLKLFDPNVKTTIDGREYHGRDFLVRRLSEMRVHHIEIEHFDIQGDKVNVRGRMDGQIGDKRQDVHFVIHMVKINGRWLLTELTEK | 2.23
12 | SEDERDISEVLEEISRIWKTGDEKRFRDLADPNVKMVVNGRELHGRDFAIEAWRKFRELYGIKHIRTVQVNSIDIQGDKVHVDTSMDGQQGEKRTVLRSEIIMLKVDGRWHLESMSFG | 1.72
13 | SEDERDMEKASEDMLRNWMTGDFKSLHTLLDPHYRIDIDGQWHHGRDLWVEALRELLHQLGVERVEARERDFKIQGNKLESHIELRYNGRTIETDDLFIKIDGRWFIHSIHLRIR | 0.94
14 | SEDERDMERFNRLVSHAMETGDEDTLNHLADPNVRVHIGDKDLHGREDYSRWLHELIRRVDYMEVHIHDERLQGDKAIVDSRIRLKFDGVETRIETILYLKKFDGRWRMTTFELK | 0.705
15 | SEDERDSEEWAKILIKLLETGDEDELRRLMDPHVRTEVIVNGRTITHHGREDLTEFLRKLGADVIDIERVRVIDGVVHLDSRSKQGEKHVTLHFEALKINGRWITERFHVKFH | 1.3
16 | SEDERDSKIAAEINRHWLETGDEEHFKKNVDPHTKVRIGDKEYHGRHFLLHILEHHVKHLWFEVRIEDLRLIGDFVHIDMVLFIRVDGRQETFRIRIIAQKIDGRWVVKHINIE | 0.097
17 | SEDEREAIRFLELWVRESRTGDEDSTDRLADPHTRVEFENHHSVGREHAVTFLIHLRTHHFEIHEVQVFNGRIEMRLHVDGIFNGRRYRSDVLLVVLKIDGQWLLHSIRFH | 1.52
18 | SEDEREFEEFVRFFFKMMVTGDEDDLIRLLDPHAKFEINGKILHGWRHLLEEIREMGIKHWKIRDIKVQGEKVENELELEVGEKRFHIRLIATKVNGKWHVKEFSIHEI | 2.29
19 | SEDEREFLDVLKWLIEAVATGDERIWKELVDPHVRLEVGDKHRHGRETFEKTMRHLRVKEVRVKLHDFDFIGEKMTADVKLEIHLIVGDKERDIRLDIIVHSRKIDGKWHVESIHIR | 1.51
20 | SEDERELKHWQTIALRLWKTGDFKSELENLDPHARLHINGVHIIGRERMKEFLERIKNLRVEHLHDEHVHIQGDKITLHGHMDVIINGQRTEVDYEFILLKVNGRWLDHSIEMR | 1.1
21 | SEDERFWKKALDDLLDTIRTGDEHKFREMMDPNVRVHIGDKHFHGREQASEQVVRLGVDHIELRRVDFQGDYLEIHGHLRVNGRETRIHFVLLKIDGRWVVKEVRQE | 2.21
22 | SEDERFWVERLEEVLRAILTGDEDRIRELADPDVRVRYGDKELHGWKDLHEFMEFFKNVRINVRHVRNQGDKQEVDSEFTFEGRRHETELRLVVINGRVRHIEIIIR | 1.41
23 | SEDERLALKMAEVIMHHLSTGDERILESFFDPNVQFIYGDKTNHGMEETLKFWEHIRIEVKSFTWKHITHVDGRLEMHTRSRELFIYGEFKEDRETRVHIIIDKVDGKWNHHSVRFR | 0.06
24 | SEDERLAREVIEILHNIMHTGDEHLLDEMLDPNAKVHFDGKDFHGMDVWIKFLIEIRVDSIHVRRVHSINGVLHVDSELDGTINGKKDIRRTRIIMEKVDGRWRVTEVRYV | 1.41
25 | SEDERLLREAVEELIHSWETGDFDHVLRMFDPDVRLHFEGRHTHGREVYEQQLRFLWERFKNVRITVEYKHVEVINGKAIVHGKLLLIIGDKTVELTNEIYVRKINGKWLSEEIRIK | 1.44

Row | Sequence | protease stability score
26 | SEDERLMKKLWEDLIRDLITGDEDSMKRLADPNVLVEFENHKEHGRDLFSHLMFHARIKRIHTHEVEIQGDKAVYNVRIDGEINGQRHDYEREIYSFKVNGQWFIERVIIK | 1.4
27 | SEDERLVRHALNELLHHIETGDEERLIKLIDPNYRISINGQELHGWEEYVRLIREWRIRRFRVKDVDVQGDKANLDVRTHGDIDGQHHDFTIKIIATKINGRWINEEIIVE | 2.4
28 | SEDERQAEEASEQFLRSVETGDFDELSRLFDPDMKVVFNGKELHGRETYIRLERERRRDLGIKHVKVRVKDFRIINGRLHLHTELEFNVGDKSFTHESRYTWEKVNGRWVIRSVDID | 2.15
29 | SEDERQSEHMNRLIFESLETGDFHKLMRLMDPHARAVVDGREVHGMELLEEILKRIKDELGVTRIRTRIRTERTQGNKADNITEYEIGDKSFTVIIHNQKIDGRWVIHEVRFE | 1.24
30 | SEDERRFREALRIWFQLVRTGDEEELKHFFDPNVRIHIGDKTFHGMELVLRQIVEEAREIRVRSVTIHELDRQGEWIHMDVRIDEEINGRRIHHSVEIIALKINGKWFFHSIIIR | 1.4
31 | SEDERVAEELLRLLSEYLKTGDEQIVTELLDPHTKMIIDGQTHIGMDVWQMLRKHIRVKNSDVHDVKFVDGRMHLDMRVHGHVNGVDVTRRLHVHTHKINGRWHIKEIHIE | 1.46
32 | SEDERVAFELVVIWSEALITGDEHTSIELLDPNTRIIFNGRDRHGRTFLQEWMKQLRVERIRIHIHHINLQGDKLKVFSELRFVGNVDGVRDEIKTEVVVFLDKIDGRWIVSHIDVH | 2.22
33 | SEDERWLELLSRLLIEATRTGDWRELRHMLDPNVQLSFDGVQLHGRETIIEFLRHEERRLGVKHIDLHDRRIEYFDGRVILESELIIHYGDKEHRSEVRVYANKVNGRWFIEHIEIG | 2.13
34 | SEDERYAEIADRIVRHSQETGDETDHMRMMDPDVRIEIGDKRYHGRELEHKLLKIWGVTRIEYDVRSIEVQGEKVRIDGVINFNGVELKIILYVLKFNGKWSYTKVEIQ | 1.84
35 | SEDESAARHVIERMSHNLMTGDEEDLSDQFDPHVRVDINGVEIIGREELLRWLREWLRHAGVSKFNVHIIPREIRLIGDFMEINGELRMNYNGKEERTETRIIVFKFNGKWSIERMRIH | 1.72
36 | SEDETEEHKFHNILSHAWETGDEEVLERLADPHVRFFYNGKEQVGRELMVELLRELLKRLGVDRIEIEIKDVRLQGDKARWHGDNVFNGRRVHVHISLVKVNGRWRIHHLDMG | 1.31
37 | SEDETELKRWVERFERSMHTGDEEDLRQMADPNTRFEVGDKEIHGWDLWSKIHRKEREKLGVDNVTTNIKRLEMYGDKLRLESELIFNGQRLEVILIAEKIDGKWVVTSFHIH | 0.129
38 | SEDETHFKHMWKLILDTSITGNEELLKTLFDPHYRLSVDGVEFHGREALRYWLDRVDHVEDHRIKSFELQGDKIYMNGESKTQQGDKTHSHDIHIFTKKIDGQWVIHSLHVR | 1.16
39 | SEDETIALEFLKNWLRDLKTGNEEALSKLLDPNARMVFNGKEHHGREILLDIIKHFVERIDHFNSLHVHDIKIQGDKVHMDLRLIGHVDGREVEHRIHMVIIKYDGRWINQVEEIE | 1.16
40 | SEDETLAEEAVEEFEKHMETGDEDELIRLVDPHVKIHFNGRDIHGWKWIHVFLRDLGVDVKRIHVKDIEVFNGVVLLRGEFRFRFNGQDFSKDVENIIVKVDGRWFHHEIRIR | 1.85
41 | SEDETLMRHLVQLFIRREATGDWKKLDELFDPNVRIDINGVEYHGREDWLKHYEDLLKRIKNVRIEIDDQHMEVVGDFIHYDLHGTLEVNGRNIRMQIIIHIRKIDGKWLIEEQIIIIR | 1.4
42 | SEDEWWARYVTKLLIHSMKTGDEDLLHELADPSTKLDVGDKRYHGREEFRRLMRELRERADHLTISIKHIEVQGDKVDLDMHIRLEYGDKFIELRVHIHVEKVNGQWRLREREER | 0.879
43 | SEDFHRIFHMLELIIRAWITGDEELLEKLADPHVRIDIDGVDIVGMELVSTFLHEIRFDLKQIRFKDIHVVNGRIRLHGESDVHVQIGDKEYEIRSEEEWIVTKVNGQWRLTEVRYL | 2.08
44 | SEDHDLVREVARLYIDAVKTGDEDLIRFLFDPHVRSEINGVQLHGWEEVFRFWQELRVHHIDLHSVHVEFQGDKAINRNEVHYNGEYGDKRNRYRLDLRIILHKIDGRWIVEEVHLITD | 1.45
45 | SEDHDTDRHIMDLILRDVFTGDEEEFTRLADPNVKHIDENHFSVGWENVLEMLRFWEDEARMTDIKIHDLEIQGDKIVSHVHIDGEVNGKRRELEVIIYILKVDGKWHLEYFEVR | 2.2
46 | SEDHEAAHDMLELLRHMELTGDENSLMDLLDPNAKNDVDGKVSVGREEWLRMVHFLLTRFDHIKSIEVEESRHIDGRLNYQTRLRGTVNGQDVELRTEWIVIKVNGKWFLHKVRFV | 1.24
47 | SEDHEAAHEVIREWEKVHKTGDEHIFTQLLDPHMRIEIGDKRFHGRDEAVTHFRENLTHWRIHRMEMEDVNSQGEYIIYHVQNFVRINGKVVILDLTIIILKVDGRWVIHSIHIK | 1.24
48 | SEDHEAFDSMIQSWLDVYLTGDEDIMLELFDPRMRVDINGKDIHGMHHYTDLLHKVRRERGFEEHLRIEDSKVINGKAEFHTHVHIRQGDKNMEFEVTIVVLKINGKWWIKHIEIT | 0.922
49 | SEDHEALHKFLKELIESSRTGDWEDVTRLADPHTRQDFNGKILHGREELKETLKELGINHMEVILNRIDVQGDKAHVDGHLVIYYNGKEITREREIRMVKIDGVWLMHEVRIK | 1.15
50 | SEDHEATHLIVELLERALKTGNERLWKDLFDPNVRIDINGKYFHGREEYVHFFKEWRFHDSRVHVHEVRVNEHELHIHGEVESHVTYNGQHRNLRLETTLFVIKVNGRWLFRHIEVR | 1.5
